Assay results as given in patent US20210395718A1, “NOVEL KETOSE 3-EPIMERASE” (NATIONAL UNIVERSITY CORPORATION KAGAWA UNIVERSITY, priority 2018, published 2021).
Substitutions are numbered along the chain they refer to.

B1: Ketose 3-epimerase mutant 18: amino acid-substituted mutant of SEQ ID NO: 1 (protein)
chain: MKIGCHGLVWTGRFDAEGIRYSVQKTKEAGFDLIEFPLMDPFSFDVATAKSALAEHGLTASASLGLSEATDVSSEDPAIVKAGEELLNRALDVLAELGATEFCGVIYSAMKKYMEPATEQGLSNSKAAVGRVVDRAAGLGINVSLEVVNRYETNVLNTGRQALSYLSDVKRPNLGVHLDTYHMNIEESDMFSPVLDTAEALKYVHIGESHRGYLGTGSVDFDNFFKALGRIGYDGPVVFESFSSAVVAPDLSRMLGIWRNLWADNEELGAHANAFIRDKLTAIKTIELH
modifications: Arthrobacter histidinolovorans
B2: Ketose 3-epimerase mutant 31: amino acid-substituted mutant of SEQ ID NO: 1 (protein)
chain: B1 chain with E101D, E199D
modifications: Arthrobacter histidinolovorans
B3: Ketose 3-epimerase mutant 32: amino acid-substituted mutant of SEQ ID NO: 1 (protein)
chain: B1 chain with P77S, E101D
modifications: Arthrobacter histidinolovorans
B4: Ketose 3-epimerase mutant 24: amino acid-substituted mutant of SEQ ID NO: 1 (protein)
chain: B1 chain with E101D, S167Q
modifications: Arthrobacter histidinolovorans
B5: Ketose 3-epimerase mutant 28: amino acid-substituted mutant of SEQ ID NO: 1 (protein)
chain: B1 chain with V129I, A200V, S218N
modifications: Arthrobacter histidinolovorans
B6: Ketose 3-epimerase mutant 33: amino acid-substituted mutant of SEQ ID NO: 1 (protein)
chain: B1 chain with T59S, A60V, A200V, S218N
modifications: Arthrobacter histidinolovorans
B7: Ketose 3-epimerase mutant 23: amino acid-substituted mutant of SEQ ID NO: 1 (protein)
chain: B1 chain with E101D, P172G
modifications: Arthrobacter histidinolovorans
B8: Ketose 3-epimerase mutant 20: amino acid-substituted mutant of SEQ ID NO: 1 (protein)
chain: B1 chain with T59S, A60V, E101D, V129I
modifications: Arthrobacter histidinolovorans
B9: Ketose 3-epimerase mutant 27: amino acid-substituted mutant of SEQ ID NO: 1 (protein)
chain: B1 chain with V129I
modifications: Arthrobacter histidinolovorans
B10: Ketose 3-epimerase mutant 2: amino acid-substituted mutant of SEQ ID NO: 1 (protein)
chain: B1 chain with E101D, A200V, S218N
modifications: Arthrobacter histidinolovorans
B11: Ketose 3-epimerase mutant 37: amino acid-substituted mutant of SEQ ID NO: 1 (protein)
chain: B1 chain with E101D, A109S
modifications: Arthrobacter histidinolovorans
B12: Ketose 3-epimerase mutant 35: amino acid-substituted mutant of SEQ ID NO: 1 (protein)
chain: B1 chain with E101D, V132I
modifications: Arthrobacter histidinolovorans
B13: Ketose 3-epimerase mutant 29: amino acid-substituted mutant of SEQ ID NO: 1 (protein)
chain: B1 chain with H56Y, E101D
modifications: Arthrobacter histidinolovorans
B14: Ketose 3-epimerase mutant 19: amino acid-substituted mutant of SEQ ID NO: 1 (protein)
chain: B1 chain with T59S, A60V, E101D, V129I, A200V, S218N
modifications: Arthrobacter histidinolovorans
B15: Ketose 3-epimerase mutant 30: amino acid-substituted mutant of SEQ ID NO: 1 (protein)
chain: B1 chain with E101D, S144A
modifications: Arthrobacter histidinolovorans
B16: Ketose 3-epimerase mutant 1: amino acid-substituted mutant of SEQ ID NO: 1 (protein)
chain: B1 chain with T59S, A60V, V129I, A200V, S218N
modifications: Arthrobacter histidinolovorans
B17: Ketose 3-epimerase mutant 34: amino acid-substituted mutant of SEQ ID NO: 1 (protein)
chain: B1 chain with E101D, A128V
modifications: Arthrobacter histidinolovorans
B18: Ketose 3-epimerase mutant 25: amino acid-substituted mutant of SEQ ID NO: 1 (protein)
chain: B1 chain with E101D, K202R
modifications: Arthrobacter histidinolovorans
B19: Ketose 3-epimerase mutant 21: amino acid-substituted mutant of SEQ ID NO: 1 (protein)
chain: B1 chain with T59S, A60V
modifications: Arthrobacter histidinolovorans
B20: Ketose 3-epimerase mutant 26: amino acid-substituted mutant of SEQ ID NO: 1 (protein)
chain: B1 chain with L97M, E101D
modifications: Arthrobacter histidinolovorans
B21: Ketose 3-epimerase mutant 22: amino acid-substituted mutant of SEQ ID NO: 1 (protein)
chain: B1 chain with T59S, A60V, P77S, L94V, A109S, V129I, S144A, S167Q, A200V, S218N
modifications: Arthrobacter histidinolovorans
B22: Ketose 3-epimerase mutant 36: amino acid-substituted mutant of SEQ ID NO: 1 (protein)
chain: B1 chain with L94V, E101D
modifications: Arthrobacter histidinolovorans

test: Ketose 3-epimerase activity ratio (T70/T50) at reaction temperature of 70° C. to 50° C.; type: biochemical; details: crude recombinant enzyme; ratio of activity at 70° C. to activity at 50° C., 10 min reaction
Protocol: An enzyme having higher heat resistance than an amino acid substitution-free wild type enzyme can be obtained by introducing mutation into the gene of the ketose 3-epimerase of the present invention and substituting the corresponding amino acid residue with another amino acid residue by a site-directed mutagenesis operation to prepare various amino acid-substituted mutants. The heat resistance is evaluated by two indices, that is, a ketose 3-epimerase activity ratio (T70/T50) at the reaction temperatures of 70° C. to 50° C. and a residual activity after incubation at 60° C. for one hour.
Heat resistance of the present enzyme (crude recombinant enzyme) and the crude enzyme of the control enzyme was investigated by measuring an activity at 70° C. and an activity at 50° C. under the reaction conditions (10 minutes) used for determining the optimum temperature in the above 2 shown in Table 2 and finding their ratio (T70/T50).

Molecule | T70/T50
B1 | 1.85
B2 | 1.54
B3 | 1.53
B4 | 1.68
B5 | 1.62
B6 | 1.46
B7 | 1.69
B8 | 1.79
B9 | 1.64
B10 | 2.31
B11 | 1.07
B12 | 1.34
B13 | 1.58
B14 | 1.85
B15 | 1.57
B16 | 2.37
B17 | 1.38
B18 | 1.66
B19 | 1.70
B20 | 1.65
B21 | 1.70
B22 | 1.30

test: Thermal stability: residual activity after incubation at 60° C. for one hour; type: biochemical; details: crude recombinant enzyme; after incubation at 60° C. for 1 hour
Protocol: Thermal stability of the enzyme was investigated by measuring the activity of the enzyme after incubation at 60° C. for one hour and finding its relative activity supposing that the activity at 60° C. under the reaction conditions (10 minutes) used for determining the optimum temperature in the above 2 shown in Table 2 was 100. As heat treatment conditions, the crude enzyme solution, a buffer (50 mM tris-HCl, pH 7.5), and 2 mM MgCl2 were used to give a total amount of 200 p1 and after retaining at 60° C. for one hour, the reaction mixture was cooled for 10 minutes in ice water. The residual enzyme activity was then measured by the conventional method.
The activity of each of the present enzyme (crude recombinant enzyme) and the crude enzyme of the control enzyme after incubation at 60° C. for 1 hour was measured and a relative activity of it was determined supposing that the activity at 60° C. under the reaction conditions (10 minutes) for determining the optimum temperature in the above 2 shown in Table 2 is 100. The relative activity was used as a heat resistance index of the enzyme. As heat treatment conditions, the crude enzyme solution, a buffer (50 mM tris-HCl, pH 7.5), and 2 mM MgCl2 were used to give a total amount of 200 p1 and after retaining at 60° C. for one hour, the reaction mixture was cooled for 10 minutes in ice water. The residual enzyme activity was measured by the conventional method.

Molecule | Residual activity (%)
B1 | 72.1
B2 | 58.1
B3 | 39.9
B4 | 55.4
B5 | 112.7
B6 | 91.0
B7 | 65.8
B8 | 52.1
B9 | 61.9
B10 | 83.3
B11 | 63.3
B12 | 69.2
B13 | 56.8
B14 | 91.2
B15 | 66.9
B16 | 74.1
B17 | 57.2
B18 | 51.4
B19 | 59.4
B20 | 68.9
B21 | 113.5
B22 | 57.0
